The source of these data is the DeepSol protein solubility set.

A short description of this series: soluble on expression in E. coli; label from the status in PepcDB or PDB records.
Regarding “MGSDKIHHHHHHELVIDITRGVREPMPIAIPVFGGTDAQSSAMGRDVVGVVSNDLQGSGLFRVLDPAAYIQSLPNLAVQPQFADWRAINAQALVQGEVQPQGDGRLRVAFRLWDVFSGQQVVGRAFLTQGDNWRRVSHIIADEIYKAITGEEGYFDTRVVYVAETGPKTNRVKKLAIMDQDGANQRNLTNGESMVLTPRFSPTAQEITYLSYYNSVPRVYLFNIETGRRELLGDFPGMTFAPRFSPDGNKVIMSMALDGNTEIYEMDLRTRRSSRLTNHPSIDTSPSYAPDGRQITFNSDRGGAQQIYVMNADGSGVQRISFGDGRYATPVWSPRGDLIAFTKLKGGRFFIGAMRPDGSGEKILTEGFLVEGPTWAPNGRVLMFFRQDPNGRTTLHSIDVTGYNERQISTPTEASDPAWSPLLP”, the “soluble on expression in E. coli” value is reported as “not soluble”.
With “MGSDKIHHHHHHENLYFQGMNTIDIAKSYITAIQTGDHATLGSIISPDVIWHQPGNHQFSGTHRGMAVVGPMLGKMMEVSNGTFAISRADDYMASGDWVAITLEFSGQANGVTLKQAGVDLLRIEDGKIVEVRLFSADQTQEDAFWGR”, the “soluble on expression in E. coli” value is recorded as “soluble”.
Regarding “MGSDKIHHHHHHENLYFQGMQVIKQKLTATCAQLTGYLHQPDTNAHQTNLPAIIIVPGGSYTHIPVAQAESLAMAFAGHGYQAFYLEYTLLTDQQPLGLAPVLDLGRAVNLLRQHAAEWHIDPQQITPAGFSVGGHIVALYNDYWATRVATELNVTPAMLKPNNVVLGYPVISPLLGFPKDDATLATWTPTPNELAADQHVNSDNQPTFIWTTADDPIVPATNTLAYATALATAKIPYELHVFKHGPHGLALANAQTAWKPDANQPHVAHWLTLALEWLADNR”, the “soluble on expression in E. coli” value is listed as “soluble”.
For the sequence “MGSDKIHHHHHHENLYFQGMSVAHENARRIISDILGKQNIERVWFVGCGGSLTGFWPGKYFLDCEASKLAVGYITSNEFVHATPKALGKNSVVILASQQGNTAETVAAARVAREKGAATIGLVYQPDTPLCEYSDYIIEYQWARYPETVDPAQQKAAYSLWLALEILAQTEGYAQYDELVSAFGRFSDVVHGAQRQVQEDAQRFAAEWKDEKVVYMMGSGPSFGAAHQESICILLEMQWINSASIHSGEYFHGPFEITEPGTPFILLQSSGRTRPLDDRAIRFIERYQGKLQLIDADKLGIQDLSTDVGEYFCGLLHNCVLDVYNLALATARNHPLTTRRYMWKVEY”, the “soluble on expression in E. coli” value is listed as “soluble”.
Under “MGSDKIHHHHHHEVYIFTSHREPALDGLHYLYSYDGYHWDSIAGSWLKPEIGNKTPYYNYFTKQTEEQKYAPNSMMRDPSMTQGPDGTFHLVWTISWNGEQGFGYASSKDLIHWSEQREIKVMKDSLTNNVWAPEVFYDDEKEQFIVAWSSAIPVERYTAADSLGANKSHRAYYTTTKDFQTFTPAKAFYDPGFNSIDGFIVKRDKNDYVLIIKDNRKPGYSDLFCVSGPSAEGPYADPSVKFAPTYSEGPCAVKVGDEWLIYFDVYREGRFGAVSTKDFKNFTPIDDQISIPQGHKHGTIIEVPESVLLNLKAEEAKRFPQKD” stands “not soluble”; under “MGSDKIHHHHHHFDKIPTNPNLYHDVSSFSTADLTGKVQKIKLGSKFKIRSLITNKAKTPVFKLSNGRFIRASHDNVYEDIVLRRENVKGSYWLKKTFTVYQTPYVAGTKIANTKLTNYNKVHISQKAITKHGIYLKADGQGWINEKDLTVQDNRMEKVQALLTRKYNKPNYSIYVKQLKTRKTAGINEDKSMYSASVTKLPILYFIEKQIKDGRVKLTDKFKYIEQVNQFKGAYKVEGSGEMPKKADNKYYTVDSLLKAVTQHSDNVASNILGYYIAHQYDKTYQKTVLRVADVKWNMESRNVSSKTAANVMEALYSQKSPVISYLTSTEFDNTRISRDIAVPVAHKVGDAYDYKHDVAIIYADQPFILSVFTDKSSYEDISTIADDVYGILK”, “not soluble”.
In the case of “MGSDKIHHHHHHFEERSGVVPCGTPWGQWYQTLEEVFIEVQVPPGTRAQDIQCGLQSRHVALAVGGREILKGKLFDSTIADEGTWTLEDRKMVRIVLTKTKRDAANCWTSLLESEYAADPWVQDQMQRKLTLERFQKENPGFDFSGAEISGNYTKGGPDFSNLEKDGT”, the “soluble on expression in E. coli” value is “not soluble”.
“MGSDKIHHHHHHGKKDKEKIIDDFKVAVVTQPLSENKVQYNMVEEMAKEYEEENKIDKDKDGQTKVKQTIKHVVLPENFTSNIDSAINKIVKLADDKEVQAIVVSTDQAGLLPALQKVKEKRPEIITISAPMGDDKNQLSQFVDVNLGVSAEERGKVLAERSKEMGAKAFIHYASTDDLKDVNIAKRLEMIKETCKNIGLPFVQVNTPNINTEEDKNKVKQFLNEDIEKQVKKYGKDINVFGVNEYMDEVILTKALELKYIVAEQSNPSPIQTYPSVMGLKISEKDAQNYDKINDMISEKAKAFGMSNRLGGYPMPMDAFLPSLAIYLATEMVKQDLTQEDVCDPDYLEAFTELRFGIGSEFTPLTEVLYNYQSVILSQLIY”: the “soluble on expression in E. coli” value is recorded as “not soluble”.
For “MGSDKIHHHHHHGTVSWNLREMLAHAEETRKLMPICMDVRAIMATIQRKYKGIKIQEGIVDYGVRFFFYTSKEPVASIITKLNSLNEPLVTMPIGYVTHGFNLEEAARCMRSLKAPAVVSVSSPDAVTTYNGYLTSSSKTSEEHFVETVSLAGSYRDWSYSGQRTELGVEFLKRGDKIVYHTLESPVEFHLDGEVLSLDKLKSLLS”, the “soluble on expression in E. coli” value is “soluble”.
Consider “MGSDKIHHHHHHKFIIFTYKDSYINQSATFHSDRTNLNIKREKCDFSFFNISIGHKLSLSLQNLIINPFNYMAFTNNIMIVRHRLLTELVKLWKNGELTTDKIDRLPLELSPRRSKHAGRCCVHKERAVWKYKSLPLLGLDMDDETDELTPLSEYAARSIERANNGKPKDNIMCVIDEACSACVQINYEITDLCRGCTARSCQYNCPKGAVHVHADTGKAWIDHDTCISCGICHKSCPYHAIVYIPVPCEESCPVKAISKDEHGIEHIDENKCIYCGKCMNACPFGAIFEISQTFDVLQRIRKGEQVVAIVAPSILGQFSTTIEQVYGAFRQIGFTDIIEVAQGAMSTVEHEAHELIEKLEEGQKFMTTSCCPSYIELVNKYIPDMKKYVSGTGSPMYYAARIAKEKYPDAKIVFVGPCVAKRKEAQRDEAVDFVMTFEEISSIFDAFEINLEIVQPYAMEFSSVREAHGFAQAGGVMGAVKAFLKMEADKINAIQVSDLNKKNIGTLRAYAKSGKAPGQFIEVMACEGGCITGPSTHSGSNNGKRQLVQELAKQKKTY”, for which the “soluble on expression in E. coli” value was “not soluble”.
The entry for “MGSDKIHHHHHHKGHRVTGSDANVYPPMSTQLEEQGIELIQGFDPSQLGDAGSYPDIVVIGNAMSRGNPCVEAVLNLGIPYTSGPQFLVDHILPERWVLAVSGTHGKTSTSSMLAWILEDCGYQPGFLIGGVPQNFGVSARLGESAFFVVEADEYDSAFFDKRSKFVHYHPRTLVINNLEFDHADIFADLAAIQKQFHHQIRTVPGQGKVIWPADSHAVKQTIDMGCWSEQETYHSSEVTKGWHAKALSDDCHEFEVFFDGQSQGVLDWALIGQHNIENAVMAIAAARHVGVAPSAAIDALARFVPPKRRLELLDTVNGVSVYDDFAHHPTAIATTIKGMRAKVGQTKITIVLEPRSNTMKSGVHKDTLAHSMLQADEAFLYQADTIDWNMKEAMEAAVIPVTVLHQIDDVVAKVAASAKPGDTIVVMSNGGFGGLHKKLLAALAVSPQLVEQAH” is “not soluble”; for “MGSDKIHHHHHHLDGQALKQAVTPYFAGVLHEGLSRLKAEVYQEMEEIRLRAAQPLLLKIGESEWGLTSRGELTKKLPEAINASREDLYRTIASISDNSLYALEEEIRRGFITIPGGHRVGLAGQVIVQAAGIKGIKEFSSICFRLAREKKGCARTILPHIISTGTIVNTLIISPPRCGKTTILRDIARSISTGSSACPPHNIAIIDERSEIAGTHRGLAQLDVGIRSDVLDACPKSWGMMMAIRSLSPQVLIADEIGRKEDVEALQECVNAGVAVICSIHARNLEELSKRPLIKKLLSQGAFRLGVVLSRRNGPGTVEEIIRWD” it is “not soluble”; for “MGSDKIHHHHHHLDRYPQEELSDGSFWKTPDDANKVVSDLYGYLSTWDQDNDINSDNATMGIKWAAGNVSKGIYDPADQGWSGDYANVRQCNLILSKIDEIPDYPEADKTKALGQVYFFRAYIYFNLIRSFGDVPYIDKPLDLKDMEGITRMPRAEVYEKIMADFDKAIAALPTEWGASDYGRVTKGAAMAMKARAALYYGNWDTAATEAKNVMDLGLYELYDKDNTGKYAELFWEKADGCDEFILVTQFNYPDKTHYLMGWECFPTKGWGGMNPTQSLVDAFEDSEGAPISKSKIYDPTDPFKNRDPRLEVDILHDGEEMYGVTIKVAPLASSGSTGINQHNDATETGYYGQKWLDPSLDPLSDGWNMGKDWVHIRYAEVLLTYAEAKNELQGLDPEAFDAVNQVRRRVGMPELQNTDPSKPTYCATQDDLRQRIRNEWRVEFCLEGGKRMWDIRRWGIAKDVLNAPFEGLKYKIVDNPNDPDKKVDGGKMCILYQGDPIILSGSRYSDNNYLFPVPQSEIDLNPALTQNPGY” it is “not soluble”.
With “MGSDKIHHHHHHLFLNSLKLKDFRNYKSLQVDFSNSINVLIGDNAQGKTNLLEAIYILSMARSHRDNNDRDLINWSSDFSDITGEVQSKMGKFPLEVRITRTGKKVFVNHLTENRLSDYIGNLHTVLFAPEDLDLVKGSPGVRRKFIDSEFGQMSANYLFNLLQYRSVLKNRNAYLKNIKWIGNNPKIDEDYLKVLNDQLIDFGSEIIFQRFVLVKELEKYSYQIHKAISRNEKLTIKYASFSGIDDQSTKEEISKIFNNQLLKNKTRELFLKSTSVGPHHDDLKFSINGKEVGSFASQGQQRTTALSVRLAEIEMMKYETGEYPILLLDDVLSELDGDRQTQLLNFIQDKVQTFLTTTSLSDVERDLIKDPKIYQVKGGTLVNG”, the “soluble on expression in E. coli” value is “not soluble”.
In the case of “MGSDKIHHHHHHLTYNLLEGSGWMLKIYQVDSFTAVPFGGNPAGVCLLDEEIDERLYPRIASEMNLSETAFVRPGDEKNTYGLRWFTPKVEVKMCGHATLATAWIHFTELGVKGEISYETLSGKLGVRYVDGKIEMNFPSDNPYRVRIDEMLGRITGVEGECYYSSLTEKLLYIISSKSKLENLSFDFSLLETCDFGYTVKGLIVSSPGDEKFDFYSRYFAPWVGIDEDPVTGSAHTVLGPFWSEKLGRKNLRACQLSSRRGELDLELLPNSRILILGKAVTVIRGTISI”, the “soluble on expression in E. coli” value was “not soluble”.
For the sequence “MGSDKIHHHHHHMAADHVHCASCGQPLTGSYYVLINRPERFCPQCIATRPRCSTCGAPLGNHFWKLHDGRQQCDACHAVAIYDPVQAQHLFQQTAGMLAEGMGLRLHVGVAFRLVDAPTMARLRGPTPPGQDTLGLYRRQNHVRVIYLLYGLPTLIFRITAAHEYAHAWQAEHCPLLRNEFLREGHAEWVAYQHLLQLGSHKAAARMLDENHPYHEPLRYLLQLEAQLGIEGVNRYMMRVDIE”, the “soluble on expression in E. coli” value is “not soluble”.
The entry for “MGSDKIHHHHHHMAAFQTAAQLARAVQSGETTPQQLLHGALARAEAVRGLNALVSLNSHAEEQAAAVQGRMQAGETLPLAGVPIVVKDNINVTGTRTTCGSRMLANYVSPYTATAAQKLQGAGAVIVGKANMDEFAMGSSTESSASGPTLNPWDHERVPGGSSGGSAVAVAAGISPVSLGSDTGGSVRQPAALCGVYGFKPTYGRVSRYGLVAYASSLDQIGPFARSAEDLALLMNVIAGHDPRDATSLDAPARFAVGGADSLRGLRVGVIRESLGGNTPGVEAALGATLDALRGAGAVVGEVSIPELEYAIAAYYLIAMPEASSNLARYDGMVYGERVPGGDVTRSMTLTREQGFGQEVQRRILLGTYALSSGYYDAYYAKAMKVRRLIADEFTTAFGQYDVLVTPTSPFPAFRRGEKASDPLAMYAADVDTVAVNLAGLPALSVPAGFEEVDGKRLPVGVQFIAPALQDERLLALAGALEAVGAVQLEMPQD” is “not soluble”.
